B1: TRIM63 (parent)
chain: QRITQEQEKKLSFIEALIQQYQEQ
B2: TRIM55 (parent)
chain: ICPICLEMFTKPVVILPCQHNLCR

Variants of: B1
Assay: protein stability index of a GFP-peptide fusion (GPS, HEK-293T) (PSI 1-6); higher = more stable
Conditions: c terminus: a fixed tail appended
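Further: lentivirally expressed fusions sorted by FACS into six bins by GFP to DsRed ratio, PSI derived from sequencing read proportions per bin multiplied by bin number.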

Variant	protein stability index
Q7F	2.02
Q7R	2.29
Q7A	2.16
Q7V	3.28
Q7E	2.76
Q7W	3.76
Q7I	4.42
Q7K	1.96
Q7S	2.86
Q7G	1.83
Q7T	3.54
Q7N	3.1
Q7M	2.46
Q7C	2.83
Q7D	3.02
Q7Y	2.12
Q7H	2.32
Q7P	2.31
Q7L	3.44
E6T	1.7
E6C	1.83
E6I	1.62
E6D	2.12
E6M	2.27
E6Q	1.75
E6F	1.9

Variant	protein stability index
E6L	1.8
E6S	2.09
E6G	2.39
E6R	1.88
E6P	1.97
E6A	2.24
E6K	2
E6W	1.43
E6V	1.81
E6N	1.73
E6H	1.71
I3L	2.5
I3R	2.76
I3A	2.37
I3E	2.45
I3D	2.22
I3F	2.61
I3P	2.62
I3S	2.59
I3M	1.83
I3H	2.54
I3V	2.56
I3T	2.39
I3Q	2.33
I3N	2.48
I3Y	2.16

Variant	protein stability index
I3C	2.3
I3K	2.37
I3G	2.31
I3W	2.44
T4W	1.71
T4I	2.55
T4D	3.22
T4C	2.1
T4R	2.79
T4L	2.63
T4Q	2.89
T4F	2.2
T4M	2.7
T4V	2.87
T4G	2.73
T4K	2.8
T4H	1.8
T4N	2.59
T4E	3.19
T4S	2.5
T4P	2.87
T4Y	1.66
T4A	3.01
E8I	1.9
E8F	2.03
E8M	1.62

Variant	protein stability index
E8K	2.12
E8L	1.86
E8T	2.28
E8S	2.17
E8P	1.66
E8D	1.95
E8R	1.56
E8Y	1.82
E8H	1.75
E8Q	2.12
E8C	2.09
E8A	2.18
E8N	1.97
E8G	1.87
Q1F	2.91
Q1A	2.3
Q1K	2.17
Q1S	2.23
Q1N	2.31
Q1L	2.57
Q1G	2.13
Q1C	2.11
Q1D	2.32
Q1E	3.15
Q1W	1.95
Q1I	2.75

Variant	protein stability index
Q1T	2.19
Q1V	1.79
Q1R	2.16
Q1Y	1.95
Q1P	2.17
Q1M	2.36
Q1H	2.84
Q5H	2.05
Q5M	2.33
Q5S	2.17
Q5A	2.5
Q5G	2.62
Q5T	2.58
Q5W	1.24
Q5F	1.73
Q5N	2.32
Q5L	1.68
Q5I	2.39
Q5Y	2.27
Q5R	2.24
Q5P	2.13
Q5V	1.94
Q5E	2.98
Q5C	2.39
Q5D	2.74
Q5K	2.82

Variant	protein stability index
K9C	2.29
K9A	2.6
R2Q	2.23
R2M	2.48
R2D	3.23
R2N	2.91
R2G	2.35
R2S	2.45
R2E	1.88
R2Y	1.75
R2H	2.44
R2T	2.42
R2L	2.63
R2V	2.72
R2P	3.23
R2A	2.57
R2W	2.2
R2F	2.06
R2C	2.85
R2I	1.89
R2K	2.26

Variants of: B2
Assay: as above
Conditions: c terminus: a fixed tail appended

Variant	protein stability index
R24S	1.85
R24M	2.15
R24A	1.92
R24L	2.11
R24C	2.27
R24H	2.4
R24N	2.95
R24D	2.27
R24Q	2.57
R24K	2.32
R24V	1.83
R24W	2.35
R24F	2.01
R24G	2.41
R24E	2.11
R24Y	2.13
R24T	2.71
R24P	2.32
R24I	2.24
L22N	2.54
L22C	2.04
L22S	2.4
L22K	2.38

Variant	protein stability index
L22V	2.55
L22H	2.48
L22A	2.36
L22E	2.45
L22Q	2.72
L22W	2.44
L22I	2.31
L22R	2.51
L22Y	2.08
L22D	2.64
L22M	3.14
L22T	2.17
L22P	2.29
L22F	1.99
L22G	2.44
I15S	2.74
I15V	2.14
I15M	2
I15L	2.6
I15W	1.85
I15N	2.5
I15T	2.88
I15R	2.18

Variant	protein stability index
I15Y	2.02
I15K	2.09
I15Q	3.22
I15P	2.69
N21S	2.93
N21L	2.01
N21Y	2.48
N21K	1.74
N21C	2.2
N21V	2.35
N21R	2.31
N21Q	2.17
N21P	2.52
N21E	2.54
N21W	2.19
N21D	2.23
N21A	2.73
N21G	2.71
N21I	2.04
N21M	2.29
N21H	2.39
N21F	2.53
N21T	2.39

Variant	protein stability index
C18K	1.89
C18D	2.53
C18E	2.48
C18H	2.27
C18L	1.77
C18W	1.95
C18R	1.45
C18V	1.91
C18Q	2.19
C18Y	1.79
C18I	2.02
C18T	1.98
C18M	2.16
C18A	1.75
C18S	2.23
C18P	2.11
C18G	2.26
C18F	1.89
C18N	1.81
P17W	2.31
P17Q	2
P17R	2.17
P17G	1.83

Variant	protein stability index
P17N	1.86
P17D	2.27
P17A	1.97
P17C	1.8
P17Y	1.99
P17M	1.7
P17I	2.18
P17E	2.62
P17K	1.93
P17F	2.53
P17V	2.33
P17L	2.44
P17H	2.35
P17T	2.32
P17S	2.91
L16E	2.35
L16Y	2.39
L16A	2.56
L16P	3.02
L16S	2.4
L16N	2.67
L16G	3.03
L16T	2.77

Variant	protein stability index
L16I	2.05
L16F	2.12
L16R	2.24
L16V	2.68
L16K	2.58
L16W	2.38
L16C	2.4
L16Q	2.62
L16D	2.61
L16H	2.86
L16M	2.38
C23H	2.92
C23A	1.72
C23P	2.24
C23G	2.01
C23S	1.93
C23F	1.73
C23N	2.13
C23D	1.97
C23Q	2.21
C23W	2.05
C23L	2.28
C23I	1.82

Variant	protein stability index
C23Y	2.25
C23M	2.43
C23E	2.65
C23V	2.46
C23T	2.64
C23K	2.03
C23R	2.47
H20A	2.22
H20C	2.23
H20M	1.54
H20Q	2.2
H20V	1.34
H20G	2.08
H20L	1.91
H20K	1.87
H20D	2.14
H20E	1.68
H20P	2.23
H20R	1.45
H20W	1.27
H20Y	1.52
H20N	1.88
H20F	2.77

Variant	protein stability index
H20T	1.54
H20S	2.12
H20I	1.45
Q19R	2.25
Q19Y	2.31
Q19I	2.68
Q19H	2.09
Q19K	2.01
Q19A	2.05
Q19G	2.85
Q19P	2.12
Q19T	1.98
Q19N	2.34
Q19V	2.18
Q19E	2.28
Q19C	1.98
Q19M	2.15
Q19D	2.54
Q19L	1.84
Q19W	1.61
Q19F	2.05
Q19S	2.23

From the supplement of paper PMC10567573
